Results from patent publication US20180362587A1, “Compositions and Methods for Inhibiting CBP80 Binding to PGC1 Family of Co-Activators” (University of Rochester, priority 2015, published 2018).
Primed or numbered codes have the meaning given here. * marks the point of attachment. Biotin = O=C1N[C@H]2[C@H](CS[C@H]2CCCCC(=O)*)N1; FITC′ = fluorescein-isothiocyanate; Ahx = NCCCCCC(=O)O

Columns and labels:
[1] = molecular target: T1, CBP80/CBP20 complex (human, UniProt Q09161 20-790; P52298 1-156, limits assumed); experiment: fluorescence polarization; 1 µM FITC peptide titrated with CBC complex (1-80 µM), 1:1 model
T1 construct: Used in the fluorescence polarization assays; In the crystal it also carried the cap analogue (m7GpppG / m7GpppA); also called CBC complex; CBC
T1 sequence (looked up) 1: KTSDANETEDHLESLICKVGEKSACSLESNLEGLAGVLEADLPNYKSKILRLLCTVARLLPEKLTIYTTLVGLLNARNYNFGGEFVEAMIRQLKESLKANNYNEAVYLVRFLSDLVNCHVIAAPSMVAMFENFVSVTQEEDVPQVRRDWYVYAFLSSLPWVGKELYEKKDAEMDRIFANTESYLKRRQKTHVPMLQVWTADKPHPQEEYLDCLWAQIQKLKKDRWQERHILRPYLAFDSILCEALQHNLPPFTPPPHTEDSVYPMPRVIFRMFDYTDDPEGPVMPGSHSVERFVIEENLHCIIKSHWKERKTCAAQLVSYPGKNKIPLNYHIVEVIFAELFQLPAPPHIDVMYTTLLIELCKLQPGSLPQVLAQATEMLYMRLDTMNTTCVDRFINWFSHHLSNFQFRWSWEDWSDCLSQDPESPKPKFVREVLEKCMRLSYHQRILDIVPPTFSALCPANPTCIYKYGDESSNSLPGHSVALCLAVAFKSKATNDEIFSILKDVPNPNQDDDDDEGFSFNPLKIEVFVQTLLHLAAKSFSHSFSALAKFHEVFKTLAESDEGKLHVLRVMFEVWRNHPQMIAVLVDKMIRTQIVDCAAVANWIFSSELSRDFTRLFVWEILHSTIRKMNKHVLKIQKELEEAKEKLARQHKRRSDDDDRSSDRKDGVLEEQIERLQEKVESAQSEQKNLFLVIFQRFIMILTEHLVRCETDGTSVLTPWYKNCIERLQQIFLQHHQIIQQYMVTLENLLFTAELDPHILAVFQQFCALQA
T1 sequence (looked up) 2: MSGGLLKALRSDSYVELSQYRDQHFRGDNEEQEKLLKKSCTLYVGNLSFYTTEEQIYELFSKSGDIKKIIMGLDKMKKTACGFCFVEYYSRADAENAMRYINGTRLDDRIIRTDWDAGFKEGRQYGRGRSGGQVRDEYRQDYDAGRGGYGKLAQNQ
Description: In order to develop a first set of PGC1β mimics, a series of linear peptides encompassing the CBP80-binding domain of PGC1β were designed and synthesized (Table 3). The ability of these peptides to bind to CBP80 in complex with CBP20 (also referred herein as ‘CBC complex’ or simply ‘CBC’) was assessed using a fluorescence polarization assay in the presence of fluorescein-conjugated PGC1β-derived peptide (FITC-Ahx-[…]-NH₂ (SEQ ID NO:XX), where FITC is fluorescein-isothiocyanate and Ahx is 6-aminohexanoic acid).
The assay was performed in a 15-μl scale in a low-volume 384-well black plate on a Tecan M1000 Plate Reader using 470/20 nm excitation and 520/20 nm emission filters. All proteins and peptides were dissolved and diluted in HEPES buffer (50 mM NaCl, 10 mM HEPES […]). Fluorescently labelled PGC1β peptide (FITC-Ahx-[…]-NH₂) was used at 1 μM final concentration, and fluorescence polarization data were recorded at increasing concentration of the CBC complex (1-80 μM) after a 10-min incubation. The resulting concentration-dependent FP curve was fit to a 1:1 binding model to yield dissociation constant (KD) values. Measurements were performed at least in duplicates.

[2] = molecular target: T1, CBP80/CBP20 complex; experiment: FP competition assay; 1 µM FITC-Ahx-…-NH2 as competitor, 30 µM CBP80/CBP20 complex
Description: (§1) The relative activity of the PGC1β mimics toward disrupting the interaction between CBC and the fluorescein-conjugated PGC1β-derived peptide was measured in a competition assay. Briefly, a fixed amount of CBC and fluorescein-conjugated PGC1β-derived peptide are incubated with increasing amounts of the PGC1β mimic (FIG. 11A). From the resulting dose-dependent inhibition curves, the in vitro CBC inhibitory activity of the PGC1β mimic compound is measured based on their respective half-maximal inhibitory concentration (IC₅₀) (FIG. 5B). Using this assay, various PGC1β mimics were evaluated for their relative ability to target CBC and disrupt its binding interaction with PGC1β. […] Short peptides derived from the C-terminal domain of PGC1β and PRC proteins, two other members of the PGC1 family of transcriptional coactivators, were also to bind CBC and inhibits its interaction with the fluorescein-labeled PGC1β peptide with IC₅₀ values in the low micromolar range.
^aAc = acetyl; Biot = biotin; Ahx = 6-aminohexanoic acid; Aib = 2-aminoisobutyric acid; CrtDab = N^γ-crotonyl-2,4-diaminobutyric acid. C-terminal ‘-NH₂’ refers to amidated C-terminal end of the peptide. ^bIC₅₀ was determined using fluorescence polarization based competition assay in the presence of 1 μM of FITC-labeled PGC1β (FITC-Ahx-[…]-NH₂, where FITC is fluorescein-isothiocyanate) and 30 μM of the CBP80/CBP20 complex in HEPES buffer (10 mM HEPES, 50 mM NaCl, 5 mM BME, pH 7.5).
(§2) IC₅₀ values were determined by adapting the fluorescence polarization assay described above to a competition format. 1 μM of the FITC-labeled PGC1β peptide (FITC-Ahx-[…]-NH₂) was incubated with 30 μM of the CBP80-CBP20 complex in HEPES Buffer (10 mM HEPES [pH 7.5], 50 mM NaCl and 5 mM 2-mercaptoethanol).

[3] = molecular target: T1, CBP80/CBP20 complex; experiment: FP competition assay, alanine scan
Description: To examine the tolerance of this compound to sequence modification, an alanine-scanning library was synthesized. This library of PGC1β mimics consisted of 11 linear peptides (PGC1β-2A through PGC1β-12A; Table 3), in which each amino acid residue of the parent PGC1β-wt peptide was replaced with alanine (or with glycine, when the parent residue is alanine). The peptides were tested for their ability to inhibit the CBC-PGC1β interaction using the aforementioned fluorescence polarization-based competition assay. […] These compounds include PGC1β mimics containing non-canonical amino acids such as 2-aminoisobutyric acid (Aib) and […]-crotonyl-2,4-diaminobutyric acid (CrtDab). Aib is an α,α-disubstituted amino acid which is well known for its ability to stabilize α-helical peptide structures as well as increase peptide stability against proteolysis.
as §2

[4] = molecular target: T2, FLAG-PGC1α WT (human, UniProt Q9UBK2 1-798); experiment: anti-FLAG IP from C2C12 knock-down cells, western blot
T2 construct: also called FLAG-tagged human (h) PGC1α wild-type; FLAG-PCG1α WT; not shown: FLAG tag
T2 sequence (looked up): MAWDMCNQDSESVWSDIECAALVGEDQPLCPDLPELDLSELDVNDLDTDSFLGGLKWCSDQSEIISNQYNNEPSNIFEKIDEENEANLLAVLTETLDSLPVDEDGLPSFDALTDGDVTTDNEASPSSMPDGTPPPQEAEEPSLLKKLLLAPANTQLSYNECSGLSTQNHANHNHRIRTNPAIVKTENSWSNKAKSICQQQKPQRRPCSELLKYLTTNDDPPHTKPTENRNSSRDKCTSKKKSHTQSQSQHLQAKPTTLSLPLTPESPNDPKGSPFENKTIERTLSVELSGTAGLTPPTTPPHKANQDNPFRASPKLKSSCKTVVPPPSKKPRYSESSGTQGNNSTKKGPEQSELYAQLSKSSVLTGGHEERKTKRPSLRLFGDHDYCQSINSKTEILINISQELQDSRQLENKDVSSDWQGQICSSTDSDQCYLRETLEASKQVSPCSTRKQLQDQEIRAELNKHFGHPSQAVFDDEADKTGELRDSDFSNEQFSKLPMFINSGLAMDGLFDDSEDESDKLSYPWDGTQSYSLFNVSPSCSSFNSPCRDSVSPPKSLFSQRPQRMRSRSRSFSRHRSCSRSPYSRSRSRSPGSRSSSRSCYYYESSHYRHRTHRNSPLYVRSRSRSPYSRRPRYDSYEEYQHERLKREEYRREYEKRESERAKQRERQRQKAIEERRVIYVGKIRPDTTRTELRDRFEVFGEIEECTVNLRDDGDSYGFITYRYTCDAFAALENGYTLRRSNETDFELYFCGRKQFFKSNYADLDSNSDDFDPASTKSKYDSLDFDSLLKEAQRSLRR

[5] = molecular target: T1, CBP80/CBP20 complex; experiment: FP competition assay; FITC-labeled PGC1β peptide as competitor
Description: as §1
IC₅₀ values were determined by adapting the fluorescence polarization assay described above to a competition format. […] Half-maximal inhibitory concentration (IC₅₀) values were calculated from the resulting inhibition curves as given by dose-dependent decrease in the fluorescence polarization signal. […]

B1: FITC-Ahx-AMDFDSLLKEAQQSLH-NH2 (peptide)
peptide: {FITC′-Ahx}-AMDFDSLLKEAQQSLH-NH2
notes: Tracer of the FP assays; also called fluorescein-conjugated PGC1β-derived peptide; FITC-labeled PGC1β peptide
Q: How did the Kd [1] turn out when B1 was run?
A: 47 µM

Q: For Ac-MDFDSLLKAAQQS-NH2 [PGC1β-9A (Ac-MDFDSLLKAAQQS-NH2)], which IC50 [2] is on record?
A: 33 µM

Q: And the “fold improvement of inhibitory activity against PGC1β-wt” value [3]?
A: ≤ 2 fold

B2: endogenous CBP80 of mouse C2C12 myoblasts (other, UniProt Q3UYV9 1-790, looked up)
chain: MSRRRHSYENDGGQPHKRRKTSDANETEDHLESLICKVGEKSACSLESNLEGLAGVLEADLPNYKSKILRLLCTVARLLPEKLTIYTTLVGLLNARNYNFGGEFVEAMIRQLKESLKANNYNEAVYLVRFLSDLVNCHVIAAPSMVAMFENFVSVTQEEDVPQVRRDWYVYAFLSSLPWVGKELYEKKDAEMDRIFSTTESYLKRRQKTHVPMLQVWTADKPHPQEEYLDCLWAQIQKLKKDRWQERHILRPYLAFDSILCEALQHNLPPFTPPPHTEDSVYPMPRVIFRMFDYTDDPEGPVMPGSHSVERFVIEENLHCIIKSYWKERKTCAAQLVSYPGKNKIPLNYHIVEVIFAELFQLPAPPHIDVMYTTLLIELCKLQPGSLPQVLAQATEMLYMRLDTMSTTCVDRFINWFSHHLSNFQFRWSWEDWSDCLTQDLESPKPKFVREVLEKCMRLSYHQHILDIVPPTFSALCPANPTCIYKYGDESSNSLPGHSVALCLSVAFKSKATNDEIFSILKDVPNPNQVDDDDEGFRFNPLKIEVFVQTLLHLAAKSFSHSFSALAKFHEVFKTLAESDKGKLHVLRVMFEVWRNHPQMIAVLVDKMIRTQIVDCAAVANWIFSSELSRDFTRLFVWEILHSTIRKMNKHVLKIQKELEEAKEKLARQHKRRSDDDDRSSDRKDGALEEQIERLQEKVEAAQSEQKNLFLVIFQRFIMILTEHLVRCETDGTSILTPWYKNCIERLQQIFLQHHQTIQQYMVTLENLLFTAELDPHILAVFQQFCALQA
Q: Does B2 bind [4]?
A: binds

B3: Biot-PGC1β (Biot-Ahx-SGG-AMDFDSLLKEAQQSLH-NH2) (peptide)
peptide: {Biotin-Ahx}-SGGAMDFDSLLKEAQQSLH-NH2
SMILES: CSCC[C@H](NC(=O)[C@H](C)NC(=O)CNC(=O)CNC(=O)[C@H](CO)NC(=O)CCCCCNC(=O)CCCC[C@@H]1SC[C@@H]2NC(=O)N[C@@H]21)C(=O)N[C@@H](CC(=O)O)C(=O)N[C@@H](Cc1ccccc1)C(=O)N[C@@H](CC(=O)O)C(=O)N[C@@H](CO)C(=O)N[C@@H](CC(C)C)C(=O)N[C@@H](CC(C)C)C(=O)N[C@@H](CCCCN)C(=O)N[C@@H](CCC(=O)O)C(=O)N[C@@H](C)C(=O)N[C@@H](CCC(N)=O)C(=O)N[C@@H](CCC(N)=O)C(=O)N[C@@H](CO)C(=O)N[C@@H](CC(C)C)C(=O)N[C@@H](Cc1c[nH]cn1)C(N)=O
notes: also called Biot-PGC1β peptide; biotinylated version of the PGC1β peptide
Q: With B3 as the binder, how does the IC50 [2] read?
A: 35 µM

Q: And the IC50 [5]?
A: 31 µM
